Laboratory results: patent US20110077204A1, “Agent for Targeted Drug Delivery To Cerebral Neurons” (Kagoshima University, priority 2006, published 2011)

Assays:
raphe nuclei = conditions: in vivo; cited from earlier work
brain neurons [1] = conditions: rat, in vivo
brain neurons [2] = conditions: rat, in vivo; remark: listed apart in the source
brain parenchyma = conditions: injected directly into the cerebrospinal fluid; cited from earlier work

N=C(N)c1ccc(/C=C/c2ccc(C(=N)N)cc2O)cc1 [fluorogold]
Appearance of label in raphe nuclei (raphe nuclei): the label appeared in the raphe nuclei

cholera toxin
Appearance of label in raphe nuclei (raphe nuclei): the label appeared in the raphe nuclei

cholera toxin B-subunit [CTB]
Non-specific infiltration through brain surface or ventricle surface (brain neurons [1]): does not infiltrate indiscriminately through the brain surface or the ventricle surface | Uptake by cerebellar Purkinje cells (brain neurons [1]): accumulated in the neurons of the raphe nuclei and Purkinje cells | Uptake by other cell populations (cerebral neocortex, cerebral paleocortex, hypothalamus, thalamus, brainstem) (brain neurons [1]): incorporated | Uptake by raphe nuclei neurons (brain neurons [1]): accumulated in the neurons of the raphe nuclei and Purkinje cells

horseradish peroxidase [HRP]
Detectable level of uptake of HRP label by neurons (brain neurons [2]): not confirmed

B1: glial cell line-derived neurotrophic factor (protein, UniProt P39905 78-211, looked up)
Glial cell line-derived …: SPDKQMAVLPRRERNRQAAAANPENSRGKGRRGQRGKNRGCVLTAIHLNVTDLGLGYETKEELIFRYCSGSCDAAETTYDKILKNLSRNRRLVSDKVGQACCRPIAFDDDLSFLDDNLVYHILRKHSAKRCGCI
notes: neurotrophic factor, literature report
Effect on dopaminergic condition (brain parenchyma): can improve the dopaminergic condition | Uptake by brain parenchyma (brain parenchyma): incorporated into brain parenchyma
